According to article PMC8080067, “Tight binding of cytochrome b5 to cytochrome P450 17A1 is a critical feature of stimulation of C21 steroid lyase activity and androgen synthesis” (The Journal of Biological Chemistry, 2021):
Residue numbers refer to the chain shown, from its start. Names and notes keep the numbering of the source. “Also recorded” adds a separate entry of the source. One block for each molecule: values may come before it. Ends that are not written are not given here.

What was measured:
[1] = target: P450cam (Pseudomonas putida) (UniProt P00183); test: fluorescence titration; conditions: cited from earlier work
metmyoglobin = metmyoglobin (UniProt P02144); test: fluorescence titration; conditions: cited from earlier work
cytochrome c = cytochrome c (UniProt P99999); test: fluorescence titration; conditions: cited from earlier work
[2] = target: T1, Alexa 488-T70C-b5:P450 17A1 complex (Homo sapiens, UniProt P00167+P05093, T70C); test: Peptide addition to Alexa 488-T70C-b5:P450 17A1 complex (gain of fluorescence); assay type: binding; conditions: even at a concentration of 160 μM; data not presented
T1 construct: made in house; host or cells: Escherichia coli (P450 17A1 in JM109; T70C-b5 plasmid in DH5α)
From the text: Peptides were obtained corresponding to the putative binding sites of P450 17A1 and b5 (see Experimental procedures section and Fig. S7).

P450 17A1 = target: T2, P450 17A1 (Homo sapiens, UniProt P05093); test: Inhibition of reconstituted P450 17A1 steroid oxidation reactions by peptides; assay type: biochemical
T2 construct: made in house; host or cells: Escherichia coli (P450 17A1 in JM109)
From the text: The “b5 peptide” corresponds to residues 43 to 52 of b5, and the “17A1 peptide” corresponds to residues 347 to 358 of P450 17A1 (see Experimental procedures section and Fig. S7).

WT P450 17A1 [3] = target: T3, WT P450 17A1 (Homo sapiens, UniProt P05093); assay type: biochemical; set-up: made in house; host or cells: Escherichia coli (P450 17A1 in JM109)
T3 sequence (P05093 1-508): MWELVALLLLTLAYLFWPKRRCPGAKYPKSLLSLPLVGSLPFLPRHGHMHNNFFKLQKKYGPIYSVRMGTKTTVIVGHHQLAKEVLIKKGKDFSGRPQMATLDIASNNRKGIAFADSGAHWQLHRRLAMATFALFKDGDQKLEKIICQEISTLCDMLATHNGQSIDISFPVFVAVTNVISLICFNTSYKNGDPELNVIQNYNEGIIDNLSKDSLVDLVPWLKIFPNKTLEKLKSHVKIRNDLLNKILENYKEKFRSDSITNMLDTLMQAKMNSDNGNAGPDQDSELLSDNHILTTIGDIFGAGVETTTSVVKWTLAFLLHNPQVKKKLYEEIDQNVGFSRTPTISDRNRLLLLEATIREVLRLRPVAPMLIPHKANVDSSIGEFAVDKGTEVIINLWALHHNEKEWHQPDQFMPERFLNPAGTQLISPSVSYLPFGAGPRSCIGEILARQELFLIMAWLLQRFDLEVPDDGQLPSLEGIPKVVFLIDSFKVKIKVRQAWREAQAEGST
Experimental: Figure S4. Stimulation of lyase activities by b5, T70C- b5, and NanoTemper Blue-T70C-b5. Catalytic assays for the lyase reactions were performed and analyzed as described in the main text.

[4] = substrate: CC(=O)C1CCC2C3CC=C4C[C@@H](O)CC[C@]4(C)C3CC[C@]12C; test: purified protein, by the assay type; conditions: other: 17α-hydroxylation, pH 7.4, 30.0 °C
[5] = substrate: CC(=O)[C@H]1CC[C@H]2[C@@H]3CCC4=CC(=O)CC[C@]4(C)[C@H]3CC[C@]12C; test: purified protein, by the assay type; conditions: other: 17α-hydroxylation, pH 7.4, 30.0 °C
[6] = substrate: CC(=O)[C@@]1(O)CCC2C3CC=C4C[C@@H](O)CC[C@]4(C)C3CC[C@@]21C; test: purified protein, by the assay type; conditions: other: lyase reaction (conversion to androstenedione or DHEA), pH 7.4, 30.0 °C
WT P450 17A1 [7] = target: T4, WT P450 17A1 (human, UniProt P05093 1-508); test: other fluorescence titration; as a1, with 17-OH progesterone present at 10 μM; conditions: both partners purified
T4 construct: cytochrome P450 17A1, human; approximate Mr 57 kDa; also called cytochrome P450 17A1; CYP17A1; source: E. coli JM109 (pCW vector), purified (Ni2+-NTA)
T4 sequence (looked up): T3 sequence (P05093 1-508)

WT P450 17A1 [8] = target: T4, WT P450 17A1; test: other fluorescence titration; as a1, with 17-OH pregnenolone present at 10 μM; conditions: both partners purified
WT P450 17A1 [9] = target: T4, WT P450 17A1; test: other fluorescence titration; as a1, with pregnenolone present at 10 μM; conditions: both partners purified
WT P450 17A1 [10] = target: T4, WT P450 17A1; test: other fluorescence titration; as a1, with progesterone present at 10 μM; conditions: both partners purified
WT P450 17A1 [11] = target: T4, WT P450 17A1; test: other fluorescence titration; 50 nM Alexa 488-T70C-b5 in 100 mM potassium phosphate pH 7.4 titrated with P450 17A1 (WT or variant); excitation 480 nm, emission 513 nm; quadratic fit; no substrate; no phospholipid vesicles; apparent Kd; conditions: both partners purified
WT P450 17A1 [12] = target: T4, WT P450 17A1; test: stopped-flow fluorescence; dissociation: preformed Alexa 488-T70C-b5:P450 17A1 complex mixed with 30 μM unlabeled b5; excitation 488 nm, emission >530 nm, single exponential; conditions: both partners purified

T2 sequence (P00167 whole entry partner, one chain of several): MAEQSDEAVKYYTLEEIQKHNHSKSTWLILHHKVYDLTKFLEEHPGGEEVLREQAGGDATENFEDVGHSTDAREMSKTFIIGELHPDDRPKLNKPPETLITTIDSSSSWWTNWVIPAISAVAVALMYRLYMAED
cytochrome c, sequence (P99999 2-105): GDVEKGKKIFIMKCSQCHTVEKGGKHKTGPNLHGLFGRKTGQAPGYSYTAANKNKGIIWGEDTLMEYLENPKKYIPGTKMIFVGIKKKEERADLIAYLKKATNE
metmyoglobin, sequence (P02144 2-154): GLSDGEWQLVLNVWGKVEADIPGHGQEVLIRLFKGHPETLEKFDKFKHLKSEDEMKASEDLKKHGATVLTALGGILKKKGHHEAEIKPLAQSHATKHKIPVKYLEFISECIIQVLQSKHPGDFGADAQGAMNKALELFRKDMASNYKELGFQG
T1 sequence (P00167 whole entry T70C, one chain of several): as the sequence (P00167 whole entry partner, one chain of several) above, with T70C counted along it
P450cam (Pseudomonas putida), sequence (P00183 2-415): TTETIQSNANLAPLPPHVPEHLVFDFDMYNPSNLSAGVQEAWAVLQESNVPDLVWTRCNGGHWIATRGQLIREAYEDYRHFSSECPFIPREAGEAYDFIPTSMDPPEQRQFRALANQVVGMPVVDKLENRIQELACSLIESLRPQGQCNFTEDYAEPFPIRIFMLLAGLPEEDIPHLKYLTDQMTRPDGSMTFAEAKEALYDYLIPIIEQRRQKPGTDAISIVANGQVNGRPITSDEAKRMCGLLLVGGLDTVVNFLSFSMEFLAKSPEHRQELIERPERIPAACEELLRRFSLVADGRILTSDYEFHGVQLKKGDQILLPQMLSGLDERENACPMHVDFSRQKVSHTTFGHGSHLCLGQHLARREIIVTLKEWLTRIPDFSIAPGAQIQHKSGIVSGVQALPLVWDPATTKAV

Molecule: cytochrome b5 (T65C labeled) (from UniProt P00173)
Kd [1]: 1000 nM | Kd (metmyoglobin): 1000 nM | Kd (cytochrome c): 1000 nM

gain of fluorescence of Alexa 488-T70C-b5:P450 17A1 complex [2]: did not result in a gain of fluorescence
Molecule: EHPGGEEVLRE [b5 peptide, E H P G G E E V L R E]

inhibition of progesterone 17α-hydroxylation (P450 17A1): only at the very highest concentration
Molecule: RNRLLLLEATIR [P450 peptide, R N R L L L L E A T I R]
inhibition of lyase reaction (17α-OH pregnenolone) (P450 17A1; b5 present at 10-fold higher concentration than P450, listed as P450 17A1 peptide): more inhibitory to the lyase reaction (17α-OH pregnenolone) than the b5 peptide; also recorded: weak inhibition

B1: Blue-T70C-b5: T70C-b5 labeled with the proprietary NanoTemper BLUE fluorescent dye (protein, UniProt P00167 2-134, looked up, variant T70C)
Cytochrome b5: AEQSDEAVKYYTLEEIQKHNHSKSTWLILHHKVYDLTKFLEEHPGGEEVLREQAGGDATENFEDVGHSCDAREMSKTFIIGELHPDDRPKLNKPPETLITTIDSSSSWWTNWVIPAISAVAVALMYRLYMAED
modifications: NanoTemper BLUE fluorescent dye label
stimulation of lyase activities (WT P450 17A1 [3]): stimulated the lyase reactions

B2: WT P450 17A1 (Homo sapiens) (protein)
chain: T3 sequence (P05093 1-508)
Km ([4]; WT): 0.47 ± 0.20 µM | kcat ([4]; WT): 0.0147 ± 0.000833 s⁻¹ | kcat/Km ([4]; WT): 31700 M⁻¹ s⁻¹ | Km ([5]; WT): 7.8 ± 1.4 µM | kcat ([5]; WT): 0.107 ± 0.00833 s⁻¹ | kcat/Km ([5]; WT): 13700 M⁻¹ s⁻¹ | Km ([6]; WT): 6.7 ± 2.1 µM | kcat ([6]; WT): 0.0917 s⁻¹ | kcat/Km ([6]; WT): 13800 M⁻¹ s⁻¹

B3: P450 17A1 R347H variant (Homo sapiens; R347H) (protein)
chain: T3 sequence (P05093 1-508) with R347H
Km ([4]; R347H): 1.5 ± 0.5 µM | kcat ([4]; R347H): 0.00883 ± 0.000667 s⁻¹ | kcat/Km ([4]; R347H): 5830 M⁻¹ s⁻¹ | Km ([5]; R347H): 8.1 ± 2.2 µM | kcat ([5]; R347H): 0.003 ± 0.000333 s⁻¹ | kcat/Km ([5]; R347H): 333 M⁻¹ s⁻¹ | Km ([6]; R347H): 4.8 ± 1.7 µM | kcat ([6]; R347H): 0.000717 s⁻¹ | kcat/Km ([6]; R347H): 150 M⁻¹ s⁻¹

B4: P450 17A1 R358Q variant (Homo sapiens; R358Q) (protein)
chain: T3 sequence (P05093 1-508) with R358Q
Km ([4]; R358Q): 2.6 ± 1.4 µM | kcat ([4]; R358Q): 0.00967 ± 0.0015 s⁻¹ | kcat/Km ([4]; R358Q): 3670 M⁻¹ s⁻¹ | Km ([5]; R358Q): 4.6 ± 0.7 µM | kcat ([5]; R358Q): 0.00717 ± 0.000333 s⁻¹ | Km ([6]; R358Q): 10 ± 5 µM | kcat ([6]; R358Q): 0.000933 s⁻¹ | kcat/Km ([6]; R358Q): 83.3 M⁻¹ s⁻¹

B5: P450 17A1 E305G variant (Homo sapiens; E305G) (protein)
chain: T3 sequence (P05093 1-508) with E305G
Km ([4]; E305G): 5.7 ± 4.6 µM | kcat ([4]; E305G): 0.00117 ± 0.000333 s⁻¹ | kcat/Km ([4]; E305G): 167 M⁻¹ s⁻¹ | Km ([5]; E305G): 3.1 ± 0.4 µM | kcat ([5]; E305G): 0.00317 ± 0.000167 s⁻¹ | kcat/Km ([5]; E305G): 1000 M⁻¹ s⁻¹ | Km ([6]; E305G): 9.4 ± 3.7 µM | kcat ([6]; E305G): 0.000933 s⁻¹ | kcat/Km ([6]; E305G): 100 M⁻¹ s⁻¹

Kd (WT P450 17A1 [7]): 6 ± 1 nM | Kd (WT P450 17A1 [8]): 2.2 ± 1 nM | Kd (WT P450 17A1 [9]): 12 ± 5 nM | Kd (WT P450 17A1 [10]): 5.8 ± 2.3 nM | Kd (WT P450 17A1 [11]): 2.5 ± 0.6 nM | koff (WT P450 17A1 [12]): 1.9 ± 0.2 s⁻¹
B6: Alexa 488-T70C-b5 (natural protein, human)
chain: MAEQSDEAVKYYTLEEIQKHNHSKSTWLILHHKVYDLTKFLEEHPGGEEVLREQAGGDATENFEDVGHSCDAREMSKTFIIGELHPDDRPKLNKPPETLITTIDSSSS
modifications: Alexa Fluor 488 maleimide conjugated to the cysteine of T70C; extent of modification 74%
notes: cytochrome b5 (CYB5A, b5), human, T70C; printed theoretical mass 16.9 kDa; Heme protein; also called labeled b5; fluorescently labeled variant of human b5
